Laboratory results taken from article PMC9190012, “Heparin activation of protein Z-dependent protease inhibitor (ZPI) allosterically blocks protein Z activation through an extended heparin-binding site” (The Journal of Biological Chemistry, 2022).

T1: K239C-NBD-ZPI (Homo sapiens, UniProt Q9UK55, C190A/C285S/K260C)
T1 construct: made in house; host or cells: Escherichia coli
T1 sequence (Q9UK55 22-444 C190A/K260C/C285S): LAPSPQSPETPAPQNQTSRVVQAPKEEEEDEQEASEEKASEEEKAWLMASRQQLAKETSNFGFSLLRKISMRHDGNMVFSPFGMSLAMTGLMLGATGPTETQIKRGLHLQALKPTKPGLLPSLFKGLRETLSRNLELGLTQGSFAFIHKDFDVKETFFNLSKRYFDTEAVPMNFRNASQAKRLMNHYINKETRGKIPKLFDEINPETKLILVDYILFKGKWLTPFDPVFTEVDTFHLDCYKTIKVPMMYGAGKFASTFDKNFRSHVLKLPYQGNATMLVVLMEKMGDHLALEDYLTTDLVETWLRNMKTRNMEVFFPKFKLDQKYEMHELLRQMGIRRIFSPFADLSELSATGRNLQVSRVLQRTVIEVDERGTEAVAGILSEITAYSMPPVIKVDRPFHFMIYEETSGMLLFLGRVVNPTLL

T2: NBD-ZPI–PZ interactions (Homo sapiens, UniProt Q9UK55, C190A/C285S/K260C)
T2 construct: made in house; host or cells: Escherichia coli
T2 sequence (Q9UK55 22-444 C190A/K260C/C285S): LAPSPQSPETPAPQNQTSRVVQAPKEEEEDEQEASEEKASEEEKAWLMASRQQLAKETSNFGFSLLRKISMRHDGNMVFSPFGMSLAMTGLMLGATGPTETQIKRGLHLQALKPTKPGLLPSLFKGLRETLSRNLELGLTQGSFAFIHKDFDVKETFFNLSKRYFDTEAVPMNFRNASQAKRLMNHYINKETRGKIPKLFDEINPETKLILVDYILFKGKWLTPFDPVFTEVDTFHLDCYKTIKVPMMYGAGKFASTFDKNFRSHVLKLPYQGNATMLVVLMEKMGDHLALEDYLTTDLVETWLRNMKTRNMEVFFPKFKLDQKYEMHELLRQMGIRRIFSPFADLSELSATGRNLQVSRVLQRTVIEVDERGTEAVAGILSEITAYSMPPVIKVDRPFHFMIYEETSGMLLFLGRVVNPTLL


What was measured:
K239C-NBD-ZPI = target: T1, K239C-NBD-ZPI; test: Fluorescence emission spectra of K239C-NBD-ZPI with PZ and heparin; type: binding; details: saturating PZ added to NBD-labeled ZPI
Description: Fluorescence emission spectra of NBD-ZPI (50–100 nM) were measured in the absence or the presence of PZ and heparin in 20 mM Tris buffer (pH 7.4), 0.2 M NaCl, 0.1% PEG 8000, 1 mg/ml bovine serum albumin (BSA), and 2.5 mM CaCl2 with an SLM 8000 spectrofluorometer with excitation at 480 nm over the emission range of 500 to 600 nm. Intrinsic protein fluorescence of WT and mutant ZPIs (200 nM to 1 μM) was measured in the same buffer without BSA, with excitation at 280 nm over the emission range of 300 to 400 nm. Emission was monitored in 5-nm steps with 5 to 10 s of integrations per step. Spectra were obtained in triplicate and averaged. Buffer, buffer plus PZ, or buffer plus heparin background spectra were subtracted, and dilution corrections were made for added PZ or heparin (<10%).

NBD-ZPI–PZ interactions = target: T2, NBD-ZPI–PZ interactions; test: Titrations of NBD-ZPI with PZ in absence and presence of fixed levels of heparin; type: binding; details: no heparin; 50 nM NBD-ZPI, 0.2 M NaCl buffer; read-out: ZPI–PZ KD,PZapp
Description: The effect of heparin on PZ binding to ZPI was measured by titrations of 50 nM NBD-ZPI with PZ in the absence and presence of different fixed levels of heparins of various lengths in the higher ionic strength buffer used for emission spectra. Titrations were monitored from the enhancement of NBD-ZPI fluorescence that signals PZ binding. These titrations were fit by the quadratic binding equation, ΔFobs/F0=ΔFmax/F0×[ZPI]0+[PZ]0+KD,PZapp−([ZPI]0+[PZ]0+KD,PZapp)^2−4×[ZPI]0×[PZ]0/2×[ZPI]0 where ΔFobs/Fo and ΔFmax/Fo are the observed and maximal fluorescence changes after addition of PZ expressed relative to the initial free NBD-ZPI fluorescence, respectively, and KD,PZapp = KD,PZ × (1 + [H]o/KD,H) is the apparent dissociation constant for the ZPI–PZ interaction in the absence or presence of heparin. The fitted parameters were KD,PZapp and ΔFmax/Fo.

FXa [1] = target: T3, FXa (Homo sapiens, UniProt P00742); test: H50 heparin-accelerated ZPI–FXa reactions: kinetics and stoichiometry of inhibition; type: biochemical
T3 construct: purchased Enzyme Research Laboratories
Outline: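 Pseudo-first-order inhibition of ~0.5 nM FXa by ZPI (70 nM for H50 titration 10^−9–10^−4 M; 10–900 nM for ka,app) at 25 °C, pH 7.4 Tris with 2.5 mM CaCl2; residual activity by fluorogenic substrate, ka,app from kobs vs [ZPI] with kd fixed at 10^−4 s^−1. SI from residual activity vs ZPI:FXa ratio (50–100 nM FXa, ±1 μM H50), dissociation-corrected.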

FXa [2] = target: T3, FXa; test: PZ-accelerated ZPI–FXa reactions: kinetics and stoichiometry of inhibition; type: biochemical
Outline: (§1)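 Human FXa (∼0.5 nM) with ZPI 10–900 nM, ± optimal H50, pseudo-first-order; PZ-accelerated runs used PZ equimolar with ZPI, 25 μM lipid, 5 mM CaCl2, ZPI 10–40 nM. Residual activity via substrate-quench initial rates; ka,app from kobs vs [ZPI] slope, kd fixed at 10^−4 s^−1. SI from residual activity vs inhibitor:protease ratio (FXa 50–100 nM, 25 °C), dissociation-corrected.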

FXa [3] = target: T3, FXa; test: Unaccelerated ZPI–FXa reactions: kinetics and stoichiometry of inhibition; type: biochemical
Outline: as §1

T3 sequence (P00742 235-488 limits assumed): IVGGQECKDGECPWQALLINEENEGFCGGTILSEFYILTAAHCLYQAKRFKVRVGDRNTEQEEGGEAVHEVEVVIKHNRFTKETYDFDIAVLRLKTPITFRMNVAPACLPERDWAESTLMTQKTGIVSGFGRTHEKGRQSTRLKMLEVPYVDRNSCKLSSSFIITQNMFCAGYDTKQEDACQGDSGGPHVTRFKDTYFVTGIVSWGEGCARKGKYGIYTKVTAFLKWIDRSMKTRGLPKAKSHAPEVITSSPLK
T3 sequence (P00742 41-179 limits assumed): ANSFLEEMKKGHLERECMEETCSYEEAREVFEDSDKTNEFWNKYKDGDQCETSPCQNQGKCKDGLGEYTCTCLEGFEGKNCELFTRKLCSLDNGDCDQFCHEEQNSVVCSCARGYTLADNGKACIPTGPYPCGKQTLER

Molecule	enhancement in NBD fluorescence (K239C-NBD-ZPI)	Kd (NBD-ZPI–PZ interactions)	SI (FXa [1]; 1 μM H50)	ka,app × SI (FXa [1]; 1 μM H50)	ka,app × SI relative to WT (FXa [1]; 1 μM H50)	ka,app (FXa [1]; 1 μM H50, 2.5 mM CaCl2, pH 7.4, 25 °C)	H50 rate enhancement (FXa [1]; ratio of heparin-accelerated to unaccelerated ka,app × SI)	SI (FXa [2]; PZ-accelerated)	ka,app × SI (FXa [2]; PZ-accelerated)	ka,app × SI relative to WT (FXa [2]; PZ-accelerated)	ka,app (FXa [2]; equimolar PZ, 25 μM phospholipid, 5 mM CaCl2, pH 7.4, 25 °C)	PZ enhancement (FXa [2]; ratio of PZ-accelerated to unaccelerated ka,app × SI)	SI (FXa [3])	ka,app × SI (FXa [3])	ka,app × SI relative to WT (FXa [3])	ka,app (FXa [3]; absence of PZ, 2.5 mM CaCl2, pH 7.4, 25 °C)
PZ: human plasma protein Z, cofactor of ZPI, from Enzyme Research Laboratories	~300%	9 ± 1.2 nM														
R263A: ZPI helix H site mutant (protein, UniProt Q9UK55 22-444, looked up, variant R263A) Protein Z-dependent protease …: LAPSPQSPETPAPQNQTSRVVQAPKEEEEDEQEASEEKASEEEKAWLMASRQQLAKETSNFGFSLLRKISMRHDGNMVFSPFGMSLAMTGLMLGATGPTETQIKRGLHLQALKPTKPGLLPSLFKGLRETLSRNLELGLTQGSFAFIHKDFDVKETFFNLSKRYFDTECVPMNFRNASQAKRLMNHYINKETRGKIPKLFDEINPETKLILVDYILFKGKWLTPFDPVFTEVDTFHLDKYKTIKVPMMYGAGKFASTFDKNFACHVLKLPYQGNATMLVVLMEKMGDHLALEDYLTTDLVETWLRNMKTRNMEVFFPKFKLDQKYEMHELLRQMGIRRIFSPFADLSELSATGRNLQVSRVLQRTVIEVDERGTEAVAGILSEITAYSMPPVIKVDRPFHFMIYEETSGMLLFLGRVVNPTLL			2.8 ± 0.1 moles ZPI/mole FXa	3.5 ± 0.4 × 10^5 M^−1 s^−1	(0.29)	1.3 ± 0.1 × 10^5 M^−1 s^−1	55 fold	3.1 ± 0.1 moles ZPI/mole FXa	2.1 ± 0.2 x 10^7 M^−1 s^−1	(0.48)	6.9 ± 0.5 × 10^6 M^−1 s^−1	3359	2.7 ± 0.5 moles ZPI/mole FXa	6.4 ± 1.3 × 10^3 M^−1 s^−1	(0.40)	2.4 ± 0.1 × 10^3 M^−1 s^−1
